Measurements taken from paper PMC3762362.

What was measured:
[1] = molecular target: SNAP-tagged S. cerevisiae Arp2/3 complex labeled with Dy649 (Arp2/3-SNAP649) (S. cerevisiae) (UniProt P32381)
[2] = molecular target: SNAP-tagged S. cerevisiae Arp2/3 complex labeled with Dy649 (Arp2/3-SNAP649) (S. cerevisiae) (UniProt P32381); remark: listed apart in the source
[3] = molecular target: SNAP-tagged S. cerevisiae Arp2/3 complex labeled with Dy649 (Arp2/3-SNAP649) (S. cerevisiae) (UniProt P32381); assay: colocalization single molecule spectroscopy (CoSMoS, TIRF); biotinylated AF488-actin filaments tethered to the slide; 5 nM Arp2/3-SNAP649, 5 nM Cy3-diVCA construct and 1 μM actin (10% AF488 labeled) in solution; TIRF buffer; time resolution 0.15 s
[4] = molecular target: SNAP-tagged S. cerevisiae Arp2/3 complex labeled with Dy649 and biotin (Arp2/3-SNAP649-biotin) (S. cerevisiae) (UniProt P32381); assay: colocalization single molecule spectroscopy (CoSMoS, TIRF); Arp2/3-SNAP649-biotin tethered to the slide through streptavidin; 0.1–2 nM Cy3-diVCA construct and 1 μM actin (10% AF488 labeled) in solution; periods with no filament colocalized; TIRF buffer (50 mM KCl, 1 mM MgCl2, 1 mM EGTA, 10 mM imidazole pH 7.2)
[5] = molecular target: Endogenous bovine Arp2/3 complex (bovine (endogenous in calf thymus)) (UniProt A7MB62); assay: fluorescence polarisation; fluorescence anisotropy competition: VVCA-A462C-AF594 reporter with 200 nM bovine Arp2/3 complex and increasing unlabeled GST-VCA, GST-VVCA or GST-VCA-C*; fit to a competition-binding isotherm
[6] = molecular target: Surface-tethered actin filaments (10% AF488 labeled, 1% biotinylated) (rabbit) (UniProt P68135); assay: colocalization single molecule spectroscopy (CoSMoS, TIRF); biotinylated AF488-actin filaments tethered to the slide; Arp2/3-SNAP649 and 1 μM actin in solution, no VCA; TIRF buffer; rate constant per filament subunit
[7] = molecular target: Surface-tethered actin filaments (10% AF488 labeled, 1% biotinylated) (rabbit) (UniProt P68135); assay: colocalization single molecule spectroscopy (CoSMoS, TIRF); biotinylated AF488-actin filaments tethered to the slide; 5 nM Arp2/3-SNAP649, 5 nM Cy3-diVCA construct and 1 μM actin (10% AF488 labeled) in solution; TIRF buffer; time resolution 0.15 s
[8] = molecular target: VVCA-A462C-AF594 (N-WASP 393–505, C431A, A462C, AlexaFluor 594 labeled) (human) (UniProt O00401); assay: fluorescence polarisation; fluorescence anisotropy, direct binding of 20 nM VVCA-A462C-AF594 to bovine Arp2/3 complex; no actin; 10 min incubation
VVCA-A462C-AF594 (N-WASP 393–505, C431A, A462C, AlexaFluor 594 labeled) (human), sequence (O00401 393-505 C431A/A462C): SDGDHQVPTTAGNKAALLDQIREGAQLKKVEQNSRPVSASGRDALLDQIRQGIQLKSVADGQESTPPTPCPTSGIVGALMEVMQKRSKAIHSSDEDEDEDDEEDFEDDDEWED

[9] = molecular target: VCA-AF594 (N-WASP VCA 430–505, S430C, C431A, AlexaFluor 594 labeled) (human) (UniProt O00401); assay: fluorescence polarisation; fluorescence anisotropy of 10 nM VCA-AF594 with increasing non-polymerizable Drosophila 5C actin or yeast Arp2/3 complex; single site binding isotherm
VCA-AF594 (N-WASP VCA 430–505, S430C, C431A, AlexaFluor 594 labeled) (human), sequence (O00401 430-505 S430C/C431A): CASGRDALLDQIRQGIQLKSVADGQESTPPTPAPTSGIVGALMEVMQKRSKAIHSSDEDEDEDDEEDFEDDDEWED

Cy3-diVCA-A* (Δ486–488), sequence (O00401 other isoform, or with tags, fused parts or gaps mutant): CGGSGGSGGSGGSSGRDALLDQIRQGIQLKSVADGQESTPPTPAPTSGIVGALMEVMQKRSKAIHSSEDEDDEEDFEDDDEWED
Cy3-diVCA wild-type (N-WASP VCA covalently dimerized with a Cy3 bis-maleimide), sequence (O00401 other isoform, or with tags, fused parts or gaps): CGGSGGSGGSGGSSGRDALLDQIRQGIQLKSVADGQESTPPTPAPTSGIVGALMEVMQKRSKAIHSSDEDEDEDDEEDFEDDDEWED

| Substance | kB, second order rate constant for branch formation (per mother filament subunit), single-molecule TIRF [1] [M⁻¹ s⁻¹] | fold stimulation of Arp2/3 complex-dependent nucleation in bulk pyrene-actin assays (barbed ends at the midpoint; 25 nM diVCA construct, 10 nM Arp2/3-SNAP) [2] [fold] | kV*, rate constant for diVCA release from the nascent branch (filament-bound Arp2/3 complex) [3] [s⁻¹] | τV*, mean lifetime of diVCA on nascent branches (filament-bound Arp2/3 complex) [3] [s] | kon [4] [M⁻¹ s⁻¹] | τV1, first characteristic lifetime of diVCA on isolated Arp2/3 complexes [4] [s] | τV2, second characteristic lifetime of diVCA on isolated Arp2/3 complexes [4] [s] | fAV, fraction of Arp2/3 complexes that bind filament sides coincident with diVCA [3] | also measured |
| --- | --- | --- | --- | --- | --- | --- | --- | --- | --- |
| Cy3-diVCA-A* (Δ486–488) (from UniProt O00401 432-505) (domain or fragment) | 100 | 1.4 | 0.022 | 0.7 | 1.6e+08 | 40 | 250 | 0.7 |  |
| Cy3-diVCA wild-type (N-WASP VCA covalently dimerized with a Cy3 bis-maleimide) (from UniProt O00401 432-505) (domain or fragment) | 160 | 2 | 0.04 | 0.7 | 1.6e+08 | 8 | 61 | 0.83 | Kd [4]: < 2 nM; percent of tethered Arp2/3 complexes observed to bind diVCA [4]: > 80% |
| GST-VCA-C* (GST fusion of N-WASP VCA with the C* mutation) (from UniProt O00401 432-505) (domain or fragment) |  |  |  |  |  |  |  |  | fold weaker affinity than GST-VCA [5]: 4 fold |
| SNAP-tagged S. cerevisiae Arp2/3 complex labeled with Dy649 (Arp2/3-SNAP649) (from UniProt P32381 1-391; P47117 1-449; Q05933 1-178) |  |  |  |  |  |  |  |  | kon [6]: 20000 M⁻¹ s⁻¹; kA+ (binding to filament sides, per filament subunit) with diVCA A* present [7]: 8000 M⁻¹ s⁻¹; kA+ (binding to filament sides, per filament subunit) with diVCA C* present [7]: 20000 M⁻¹ s⁻¹; kA+ (binding to filament sides, per filament subunit) with diVCA V* present [7]: 13000 M⁻¹ s⁻¹; kA+ (binding to filament sides, per filament subunit) with diVCA w.t. present [7]: 21000 M⁻¹ s⁻¹ |
| Endogenous bovine Arp2/3 complex (from UniProt A7MB62 1-394; P61157 1-418) |  |  |  |  |  |  |  |  | Kd [8]: 150 nM |
| S. cerevisiae Arp2/3 complex purified from commercial baker's yeast (from UniProt P32381 1-391; P47117 1-449; Q05933 1-178) |  |  |  |  |  |  |  |  | Kd [9]: 65 nM |

The next lines start with results.

| kB, second order rate constant for branch formation (per mother filament subunit), single-molecule TIRF [1] [M⁻¹ s⁻¹] | fold stimulation of Arp2/3 complex-dependent nucleation in bulk pyrene-actin assays (barbed ends at the midpoint; 25 nM diVCA construct, 10 nM Arp2/3-SNAP) [2] [fold] | kV*, rate constant for diVCA release from the nascent branch (filament-bound Arp2/3 complex) [3] [s⁻¹] | τV*, mean lifetime of diVCA on nascent branches (filament-bound Arp2/3 complex) [3] [s] | kon [4] [M⁻¹ s⁻¹] | τV1, first characteristic lifetime of diVCA on isolated Arp2/3 complexes [4] [s] | τV2, second characteristic lifetime of diVCA on isolated Arp2/3 complexes [4] [s] | Substance | fAV, fraction of Arp2/3 complexes that bind filament sides coincident with diVCA [3] | also measured |
| --- | --- | --- | --- | --- | --- | --- | --- | --- | --- |
| 200 | 6 | 0.05 | 0.37 | 6e+07 | 2.4 | 14 | Cy3-diVCA-C* (I467A) (from UniProt O00401 432-505) (domain or fragment) | 0.59 |  |
| 320 | 10 | 0.08 | 0.54 | 7e+07 | 3.6 | 56 | Cy3-diVCA-V* (D435S/A436D) (from UniProt O00401 432-505) (domain or fragment) | 0.7 |  |
